Source: PMC3656001

Key:
[1] = target: bovine lactoferrin (bovine); test: AUC; multi-signal sedimentation velocity (MSSV) with mass conservation and low-s constraints; mixture of 6.9 µM Tp34 and 2.3 µM bLF in solution, diluted from Buffer A into 20 mM Tris pH 7.5, 20 mM NaCl; 20°C, 50,000 rpm; interference + absorbance at 280 nm; Kd estimated from the reaction boundary molar ratio by effective particle theory, assuming sAB = 6.2 S
[2] = target: bovine lactoferrin (bovine); test: AUC; follow-up multi-signal sedimentation velocity (MSSV) without constraints, conducted almost identically to a1 but with absorbance at 280 nm and 250 nm and no interference signal; Tp34/bLF mixture in solution

B1: Tp34 from Treponema pallidum (natural protein)
chain: CGGGGEHQHGEEMMAAVPAPDAEGAAGFDEFPIGEDRDVGPLHVGGVYFQPVEMHPAPGAQPSKEEADCHIEADIHANEAGKDLGYGVGDFVPYLRVVAFLQKHGSEKVQKVMFAPMNAGDGPHYGANVKFEEGLGTYKVRFEIAAPSHDEYSLHIDEQTGVSGRFWSEPLVAEWDDFEWKGPQW
Work on B1 yielded a Kd [1] of 3.1 µM, a stoichiometry N (mol Tp34 per mol bLF) [1] of 0.7 and a stoichiometry N (mol Tp34 per mol bLF) [2] of 0.7.
